Assay results as given in publication PMC6144824.

Target: mitoribosome large subunit (mtLSU, 39S) (human (endogenous in HEK293T and 143B))
Test: co-sedimentation

MTG1 (human mitochondrial ribosome assembly GTPase), endogenous (natural protein)
percent of total MTG1 co-sedimenting with mtLSU markers: 10%
